Results taken from publication doi:10.1101/2022.09.21.508839.
Values joined by “and” are separate entries in the source; they are usually repeats but may differ in a detail not shown here. Identical values can stand only once.

Biological target: F-type ATP synthase from bovine heart mitochondria (Bos taurus (bovine))
Test: native gel or EMSA

## F-type ATP synthase from bovine heart mitochondria (complex)
  stoichiometry N: 2 and 4
